Legend:
[1] = molecular target: T1, Rv3852 (Mycobacterium tuberculosis H37Rv) (UniProt I6YHB0); experiment: EMSA; conditions: binding buffer and pH not stated ([…]
T1 sequence: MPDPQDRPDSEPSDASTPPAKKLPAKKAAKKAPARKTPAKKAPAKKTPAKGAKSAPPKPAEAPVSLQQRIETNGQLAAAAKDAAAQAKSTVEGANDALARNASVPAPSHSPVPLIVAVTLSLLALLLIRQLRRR

Rv2466c = Rv2466c (UniProt O53193); experiment: EMSA; conditions: binding buffer and pH not stated ([…]
Rv2466c, sequence (O53193 whole entry): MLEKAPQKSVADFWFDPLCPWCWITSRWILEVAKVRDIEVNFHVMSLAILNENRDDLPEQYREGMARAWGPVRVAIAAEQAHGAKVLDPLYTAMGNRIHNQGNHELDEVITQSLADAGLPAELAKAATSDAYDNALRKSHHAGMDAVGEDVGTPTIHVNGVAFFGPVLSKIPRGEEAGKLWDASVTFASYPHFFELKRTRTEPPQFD

AATTCCGGCGCCTTCCCGGGCCGGAAGCCGGGCAGCCGCACCTGTTTGGCCAGCTCTTTGTAGGCCCGCTGGAAATCCGGCTCAAGCTCGGCGAATGGCACCTCCACGTTGATACGAACCCGGGTGGGGCTCAACTGCTCGACGGTGCTCTTCACGGGTGTGCTCCTTGGTAGTCGATAACGGCGGTCGGCTGGTCGGGGTGACAGGATTTGAACCTGCGGCCTTCCGCTCCCAAAGCGGATGCGCTACCAAGCTGCGCTACACCCCGCGCTGACCTCGCGATCCTACG / AATTCGTAGGATCGCGAGGTCAGCGCGGGGTGTAGCGCAGCTTGGTAGCGCATCCGCTTTGGGAGCGGAAGGCCGCAGGTTCAAATCCTGTCACCCCGACCAGCCGACCGCCGTTATCGACTACCAAGGAGCACACCCGTGAAGAGCACCGTCGAGCAGTTGAGCCCCACCCGGGTTCGTATCAACGTGGAGGTGCCATTCGCCGAGCTTGAGCCGGATTTCCAGCGGGCCTACAAAGAGCTGGCCAAACAGGTGCGGCTGCCCGGCTTCCGGCCCGGGAAGGCGCCGG [proU2]
binding [1]: binds | binding (Rv2466c): no binding
